Reference: PMC2757144 (Molecular cell, 2009)

Columns and labels:
[1] = molecular target: T1, NSBP1 (HMGN5), wild type, recombinant (mouse, UniProt Q9JL35 1-406); assay: cross-linking
T1 sequence (looked up): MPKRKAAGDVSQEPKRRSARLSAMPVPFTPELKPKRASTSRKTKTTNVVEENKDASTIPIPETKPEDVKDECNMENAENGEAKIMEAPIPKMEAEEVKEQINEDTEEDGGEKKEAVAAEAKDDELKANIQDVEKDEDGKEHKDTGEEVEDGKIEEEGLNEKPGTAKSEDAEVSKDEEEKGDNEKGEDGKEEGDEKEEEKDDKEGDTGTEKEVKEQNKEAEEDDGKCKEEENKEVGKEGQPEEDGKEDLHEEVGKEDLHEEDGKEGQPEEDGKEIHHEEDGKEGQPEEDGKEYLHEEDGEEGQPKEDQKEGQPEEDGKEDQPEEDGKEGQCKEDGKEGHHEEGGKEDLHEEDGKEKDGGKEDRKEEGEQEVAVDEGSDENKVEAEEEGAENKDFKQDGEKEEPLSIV

[2] = molecular target: T2, HMGB1 (from mouse thymus) (mouse, UniProt P63158 1-215); assay: cross-linking
T2 sequence (looked up): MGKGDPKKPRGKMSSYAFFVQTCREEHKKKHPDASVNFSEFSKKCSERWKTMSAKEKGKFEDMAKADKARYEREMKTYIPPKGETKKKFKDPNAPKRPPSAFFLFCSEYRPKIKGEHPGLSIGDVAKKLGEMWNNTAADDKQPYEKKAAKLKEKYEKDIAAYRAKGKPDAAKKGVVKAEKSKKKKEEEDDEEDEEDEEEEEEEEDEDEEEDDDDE

binding result [1]: binds
binding result [2]: binds
B1: linker histone H5 (native, from chicken erythrocytes) (natural protein, UniProt P02259 1-190, looked up)
chain: MTESLVLSPAPAKPKRVKASRRSASHPTYSEMIAAAIRAEKSRGGSSRQSIQKYIKSHYKVGHNADLQIKLSIRRLLAAGVLKQTKGVGASGSFRLAKSDKAKRSPGKKKKAVRRSTSPKKAARPRKARSPAKKPKATARKARKKSRASPKKAKKPKTVKAKSRKASKAKKVKRSKPRAKSGARKSPKKK
